These results are taken from PMC10975748.

The target in this experiment is voltage-gated potassium channel Kv1.3 (UniProt P22001).
Sequence of voltage-gated potassium channel Kv1.3 (P22001 whole entry): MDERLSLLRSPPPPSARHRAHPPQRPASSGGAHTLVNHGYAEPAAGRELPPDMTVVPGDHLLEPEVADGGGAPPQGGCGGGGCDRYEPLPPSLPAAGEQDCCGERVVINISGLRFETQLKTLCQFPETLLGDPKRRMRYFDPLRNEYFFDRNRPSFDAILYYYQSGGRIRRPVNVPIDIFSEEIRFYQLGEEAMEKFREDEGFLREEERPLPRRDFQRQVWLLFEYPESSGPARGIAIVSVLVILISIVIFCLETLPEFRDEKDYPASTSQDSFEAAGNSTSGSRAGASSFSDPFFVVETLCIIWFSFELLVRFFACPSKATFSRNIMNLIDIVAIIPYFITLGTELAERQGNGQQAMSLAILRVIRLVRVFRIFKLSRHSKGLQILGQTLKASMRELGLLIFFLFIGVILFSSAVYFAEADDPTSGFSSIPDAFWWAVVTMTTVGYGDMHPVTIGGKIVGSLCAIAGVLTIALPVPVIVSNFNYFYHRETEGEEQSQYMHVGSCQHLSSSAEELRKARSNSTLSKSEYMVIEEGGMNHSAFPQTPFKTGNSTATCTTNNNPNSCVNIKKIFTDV

mCherry-Vm24 gave a Kd from electrophysiological assays of 275 pM.
